What all share (assay): analytical size exclusion chromatography
Background: Size exclusion chromatography separates by hydrodynamic size, large species first.

Data set [1] concerns the target NusB;NusEdelta (S10 lacking the ribosome binding loop) (Escherichia coli;Escherichia coli, UniProt P0A780;P0A7R5 1-139;1-45+68-103, |internal_change).
Data set [2] concerns the target T1, SuhB (Escherichia coli, UniProt P0ADG4 1-267).
Data set [3] addresses RNA polymerase;NusA;NusB;NusEdelta (S10 lacking the ribosome binding loop);NusG;SuhB (Escherichia coli;Escherichia …, UniProt P0A7Z4;P0A8V2;P0A8T7;P0A800;P0AFF6;P0A780;P0A7R5;P0AFG0;P0ADG4 …, |||internal_change||).
The target in data set [4] is T1, SuhB. The source holds these as a separate data set.

Like-named read-outs stand apart in the source and are kept apart here.

B1: rrnG RNA (structured_RNA)
RNA: GGGCCGCGCCGCUGAGAAAAAGCGAAGCGGCACUGCUCUUUAACAAUUUAUCAGACAAUCUGUGUGGG
Consider B1, for which the binding result (in data set [1]; with SuhB [2]) was “binds” each time.

B2: rrnG-EC scaffold (T-DNA, NT-DNA, rrnG RNA) (mixed)
DNA 1: ATCCGTATCTTCGAGTGCCCACACAGATTGTCTCATAAATTGTTAAAGAGCAGTGCCGC
DNA 2: GCGGCACTGCTCTTTAACAATTTATCAGACTTGTCCACGCTCGTCTCGAAGATACGGAT
RNA: B1 RNA
For the molecule B2, the binding result in data set [3] is reported as “binds”.

B3: random RNA (ssRNA)
RNA: UUUUUGAGUCUGCGGCGCGCG
As for B3, the binding result in the data set with SuhB [4] is “no binding”.

Source of the values: publication PMC6614797.
